# According to the DeepSol protein solubility set:
# Test: soluble on expression in E. coli; label from the status in PepcDB or PDB records
row,Sequence,soluble on expression in E. coli
1,GSHMTETVPLILLVPKSRREDLEKAQLAERLRSQFFIDYGVRLPEVLLRDGEGLDDNSIVLLINEIRVEQFTVYFDLMRVVNYSDEVVSFGINPTIHQQGSSQYFWVTHEEGEKLRELGYVLRNALDELYHCLAVTLARNVNEYFGIQETKHMLDQLEAKFPDLLKEVLRHATVQRISEVLQRLLSERVSVRNMKLIMEALALWAPREKDVINLVEHIRGAMARYICHKFANGGELRAVMVSAEVEDVIRKGIRQTSGSTFLSLDPEASANLMDLITLKLDDLLIAHKDLVLLTSVDVRRFIKKMIEGRFPDLEVLSFGEIADSKSVNVIKTI,soluble
2,MSRKTLVDTPITPQSSIGHILRAQFALQNQLPEDKPKTIGFNEAENMKLYELYSGRREEYHSTRPSGQRNEEVPMDTLAREWATEITSMGFAERTPAQIKQRIRDMRKFSRKHAHKLGITNMNAGQELERYAEFSWAEPKRRSRGPVPDWMSGLAEIMMSEQDTKADDADSASDIMEATYGPKAKRLKLQRTEMQLHQLQLHLDMKQRELKQEREKEEGNGNDEQEEREKRDVSPETLLIEKKLRLADAKLHTEHLKQQVSIP,not soluble
3,MSFSDHFSAVAASYAKARPRYPQRWFRYLARIVPDRQRVWDCATGNGQAAIALAEYFSEVIGSDASAAQVRQARSHPRVQYLVFPAEATPLAPASLDLITVAQAAHWFDLPQFYIEAQRLLRPGGVIALWGYGLGSLNPAIDHVFNHFYRDWLDPYWPPERQWVEQAYEGLSFPFEPLPTPTFSMQCDWTLFDLLAYLRTWSGVQQFQRQRGFDPVWAIAPELQRVWGDPQRYRRITWPLFAKVGRWQPDRVRLEHHHHHH,not soluble
4,MSLGSERWITVQLVGEIMGTSFERGISQYPNVNDEVHLVTESDLEAIHGVEEQGQVVVGRLASADGIPVKLDLDKMVTRHSAVLGSTGSGKSTTVASLLRSIVSGADGSDAGFPSSRILMLDIHGEYSHALSDVAKVFRISPEANQTQLHIPFWALDPNELLCFLMGRLDDKPLTAILDKVYEYKHDQAVAHPRAGLNVTSMTSDTPVPFSLKKLWLELLEPEVKTWEDTARSQPALLEAGNADNVTPPQYKPHGAGATPPFINQIGVLGIRRPLDQLRSRLLDKKYDFLLHPGDWEPDLDGNVTKDLDALLEEWLGHDKPITILDLSGVPSLVLEQLIGAILRILYEALFWGRDRSEGHHHHHH,soluble
5,MGSDKIHHHHHHMEFWESSFIEKQTMWGFEPTESAILAKDFFLEKNVKDILVPGIGYGRNAKVFIENSINVTGIEISKTAIDLARENGLEDVSIYHGSVNEMPFDNKLYDGIFSHALLHLLNDQEREGFIENCYNQLKPGAYMVFTTVSKKAPMYGKGKQLDKDYYEIMEGVKMFFYDSESIKKDFNQYGLVQVSEIDEPNKNMANKPSINFLTIKCKKEL,not soluble
6,MNESRITRNNEAVYKPEELDILRLGLDTDLYPNVDWMDMLLKDGAWSNRINLNMSGGGTTARYFVSASYVKEDGMYNTDESLKDDYNTNAAYHRWNYRLNTDIDITKTTLLKVGVAGFLSKRNSPGLGDGDVWGELFGYNPIKTPVMYSNGYIPAIGSGNKTNPWVAATQTGFNENWTNNIETNISLEQNFDFITKGLKFVGRFGYDSNNQNTIRRLKWPEQWLAERARDPETGELRWKKISGSQNMKQESSSSGNRREFLDMMLNWDRSFGAHHPSATIKYTQDSYIQTQNLGEDLKTGINKRNQDLAGRVAYNWNYRYFIDFNFGYNGSENFAKGDRFGFFPAFSLAWNIAEEPFIKKHLKWMNMFKVRFSYGKVGNDNVGTRFPYLYTIADRYKNGDNEIIYGGYDWAQYPSSYSFGGLGFADVASNGITWEVAEKNDLGIDLALFNDKFTATIDYFDEKRTGIYMVRNYLPQIVGLNGHNPAANVGAVSSKGFDGHFSYKQRINDVNLTVRGNITYSKNEVLERDEENNVYAYQMQRGYRVDQCKGLIAEGLFKDYDDIRNSPTQSWGKVQPGDIKYRDVNGDGVINDGDQVAIGATSRPNLIYGLGASASWKGLDVNVHFQGAGKSTFFTYGKCVWAFTEGEWGNIFKGMLDNRWVDADTAETLGIPANENPNASYPRLSYQGDNASNNNYRNSTFWLKNGRYLRLKTIDVGYTLPKSIVNKMHFNNIRIFLVGTNLLTWSSFKTWDPEMGDPRGESYPLTKSITMGISVNL,not soluble
7,MSLQPVPDAGPWGDYLCDSPWALINSSIYAMKEIEPEPDFILWTGDDTPHVPDEKLGEAAVLEIVERLTKLIREVFPDTKVYAALGNHDFHPKNQFPAGSNNIYNQIAELWKPWLSNESIALFKKGAFYCEKLPGPSGAGRIVVLNTNLYYTSNALTADMADPGQQFQWLEDVLTDASKAGDMVYIVGHVPPGFFEKTQNKAWFREGFNEKYLKVVRKHHRVIAGQFFGHHHTDSFRMLYDDAGVPISAMFITPGVTPWKTTLPGVVNGANNPAIRVFEYDRATLSLKDMVTYFMNLSQANAQGTPRWELEYQLTEAYGVPDASAHSMHTVLDRIAGDQSTLQRYYVYNSVSEGHHHHHH,soluble
8,MRRKETLQETPLTYQELASKILPELHLLAQEAGIEGYKRMKKDQLIMALLERQTQGEGLRLVKGYLEISQDGYGFLTENLHNLESRVAIVSAGLIKQYALRAGDYVVGQARPPRENERYATLLKVEAVNNLDPEAAKNRPRFDELTPQFPDRQIRLETTPDELSTRVIDLLAPIGRGQRGLIVAPPKAGKTTLLKKIANAVLKNEPDIKVIVLLIDERPEEVTDFRESVQGAEVIASTFDEPPQNHIRVAEFVHERAKRIVEEGGHVMILLDSITRLARANNLVTPPTGRTLSGGLDSAALYFPKRFLGAARNIRGGGSLTILATALVETGSRMDDVIFEEFKGTGNMELHLSRRLEERRIFPAIDILKSGTRREELLLGEEVTHKMWLLRKVLADMDPAEAMEMLLARLARTKNNKEFLASLAAR,soluble
9,MSLDNMAKRQTKDIETIIQKIYYAKNRHLGTYTPLKNNSELEEINNYIYDLFESNEQLIHSIEHTERRLRDIQLKEIERQFQPHFLFNTMQTIQYLITLSPKLAQTVVQQLSQMLRYSLRTNSHTVELNEELNYIEQYVAIQNIRFDDMIKLHIESSEEARHQTIGKMMLQPLIENAIKHGRDTESLDITIRLTLARQNLHVLVCDNGIGMSSSRLQYVRQSLNNDVFDTKHLGLNHLHNKAMIQYGSHARLHIFSKRNQGTLICYKIPLSRGNVDVEGHHHHHH,not soluble
10,MGSDKIHHHHHHMVSTIGIVSLSSGIIGEDFVKHEVDLGIQRLKDLGLNPIFLPHSLKGLDFIKDHPEARAEDLIHAFSDDSIDMILCAIGGDDTYRLLPYLFENDQLQKVIKQKIFLGFSDTTMNHLMLHKLGIKTFYGQSFLADICELDKEMLAYSLHYFKELIETGRISEIRPSDVWYEERTDFSPTALGTPRVSHTNTGFDLLQGSAQFEGKILGGCLESLYDIFDNSRYADSTELCQKYKLFPDLSDWEGKILLLETSEEKPKPEDFKKMLLTLKDTGIFAVINGLLVGKPMDETFHDDYKEALLDIIDSNIPIVYNLNVGHATPRAIVPFGVHAHVDAQEQVILFDYNK,not soluble
11,MESTIEGEDENYVKVYITDNLDSEHELTIDKNSGDIPYHQCDAYADDANRRTSEENEYNNQARRYAKYYVFAQRGYDTVEHIENPAYVDAVRRAIADLSPAEFKRYFGALYRQLRSHHDDTERPRELPSGVRKPDAVVYEPEIYLGLEAVGEDVAERAQALATAHGFDLEESAEVQPVSELSDETLSRWKAFGDDLAAIVTREDLTTNLTITGVSGLHIGYPNRLGKHEVDEADSPFTHQADARLSLLPYAPESFDEFPAYLDHHLRCQVRDCFLKMGVVPPEEFHVVGFGKFRDSRRYDHFEMYPEVHKRDGNHTPLLG,not soluble
12,MGSDKIHHHHHHMRDLLSKKSHRQLELLELLFEHKRWFHRSELAELLNCTERAVKDDLSHVKSAFPDLIFHSSTNGIRIINTDDSDIEMVYHHFFKHSTHFSILEFIFFNEGCQAESICKEFYISSSSLYRIISQINKVIKRQFQFEVSLTPVQIIGNERDIRYFFAQYFSEKYYFLEWPFENFSSEPLSQLLELVYKETSFPMNLSTHRMLKLLLVTNLYRIKFGHFMEVDKDSFNDQSLDFLMQAEGIEGVAQSFESEYNISLDEEVVCQLFVSYFQKMFFIDESLFMKCVKKDSYVEKSYHLLSDFIDQISVKYQIEMENKDNLIWHLHNTAHLYRQELFTEFILFDQKGNTIRNFQNIFPKFVSDIKKELSHYLETLEVCSSSMMVNHLSYTFITHTKHLVINLLQNQPKLKVLVMSNFDQYHAKFVAETLSYYCSNNFELEVWTELELSKESLEDSPYDIIISNFIIPPIENKRLIYSNNINTVSLIYLLNAMMFIRLDE,not soluble
13,HRCVALCIETRPDYCGEKEINQMLKLGATRVELGVQTIYNEILEFCKRGHTVEDTIKATQLLKDSGLKVSYHLMPGMPGSDMEMDKKMFKEIFENPDFKPDMVKIYPCLVIEGTELYEMWKRGEYKPYREEEAIEIISYAKSIMPKWV,not soluble
14,MGHHHHHHSHMGIKYHEESIHAAYVHVIENSRHYIYIENQFFISCADDKVVFNKIGDAIAQRILKAHRENQKYRVYVVIPLLPGFEGDISTGGGNALQAIMHFNYRTMCRGENSILGQLKAELGNQWINYISFCGLRTHAE,soluble
15,MAHHHHHHMSARKFAGEYVSRHLDGLTVLASLADRPAAAKPVICTHNGSFHCDEAMACGLLRHVPEYREAVILRTRDPKQIDACDIVVDVGAIYDADTNRYDHHQASFHGTMTTPKKAYKTRLSSAGLVYKHFGRQIICEYVEAVLQPSSPARAAVLSMTSWSESRTGLSEAELDVLEDALYAHFVEQVDGIDNGVECWGLADPAVGTLVPNYTQSTSLSQRIGQLQAYWNEPENGDVVAENANFAVAVEMAVTEFFKALTYLSFSWLPARSIVEAAFQRRHEFDESGKIMVFKGVKACPWKDHLLELEAESNCLGAVLYVVFSDGKGWRVQAVPKTSTSFENRKPLPYRGLRDDALSAACGIEGGVFVHVSGFIGGMKTFDGAMALAKQALVVVN,soluble
16,SNAMILIDGKSLSKDLKERLATQVQEYKHHTAITPKLVAIIVGNDPASKTYVASKEKACAQVGIDSQVITLPEHTTESELLELIDQLNNDSSVHAILVQLPLPAHINKNNVIYSIKPEKDVDGFHPTNVGRLQLRDKKCLESCTPKGIMTMLREYGIKTEGAYAVVVGASNVVGKPVSQLLLNAKATVTTCHRFTTDLKSHTTKADILIVAVGKPNFITADMVKEGAVVIDVGINHVDGKIVGDVDFAAVKDKVAAITPVPGGVGPMTITELLYNTFQCAQELNR,soluble
17,PVLTQTSEQAPSSAPRDVQARMLSSTTILVQWKEPEEPNGQIQGYRVYYTMDPTQHVNNWMKHNVADSQITTIGNLVPQKTYSVKVLAFTSIGDGPLSSDIQVITQTG,soluble
18,MTFNQEQDYWAGYKANERALIIQTWSGFGRYAPDHLYPPHILPLDTDNETLGTTVLQALANSRTFVYDSPEDQDFFDTEKIRQRYEDWVAKLCGNLGYKTRRALFKNMMSVDIWLHNGCLKISPSRHVKLEAWDAIDADDVILSLDNSPEEIGAGLKLALSRCR,soluble
19,MVVRVDETTAPLFRQIAALIEDSIVEGSLSSGERAPSTNELAAFHSINPATARKGLQLLVDAGVLEKKRGLGMFVTDNAVELIRGRRRDDFAAAYLAPLVDEAVKLTISKTELHNLIDRVAESRGLYE,soluble
